In PMC5482573:

Biological target: COPI coat leaf (one coatomer complex with two Arf1 molecules) assembled on vesicle membranes (M. musculus | S. cerevisiae) (UniProt Q8CIE6)
Experiment: cryo-EM structure; COPI coated vesicles with GTPγS incubated 15–20 min with a 10 molar excess of ArfGAP2; subtomogram averaging, difference map and classification; class with ArfGAP2 at 10.1 Å

Chain of R. norvegicus ArfGAP2, full-length, N-terminally His-tagged (Q3MID3 whole entry): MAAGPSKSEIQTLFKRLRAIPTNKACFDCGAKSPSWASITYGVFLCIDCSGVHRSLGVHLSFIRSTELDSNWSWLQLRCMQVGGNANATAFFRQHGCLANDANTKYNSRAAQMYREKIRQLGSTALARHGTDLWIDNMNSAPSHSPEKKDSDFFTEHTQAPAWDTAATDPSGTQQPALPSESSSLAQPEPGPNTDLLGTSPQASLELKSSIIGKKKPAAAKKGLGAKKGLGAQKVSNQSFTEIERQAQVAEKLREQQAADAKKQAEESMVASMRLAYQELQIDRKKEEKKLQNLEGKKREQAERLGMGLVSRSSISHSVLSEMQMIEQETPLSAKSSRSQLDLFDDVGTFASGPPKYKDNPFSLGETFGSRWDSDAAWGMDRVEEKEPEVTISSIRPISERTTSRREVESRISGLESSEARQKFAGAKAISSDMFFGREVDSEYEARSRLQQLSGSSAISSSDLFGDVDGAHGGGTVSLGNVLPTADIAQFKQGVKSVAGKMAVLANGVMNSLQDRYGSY

share of the leaves in the class with bound ArfGAP2: 65%
Substance: R. norvegicus ArfGAP2, full-length, N-terminally His-tagged (from UniProt Q3MID3 1-520) (enzyme)
